According to US20080226630A1:

Target: RSV protein F (recombinant or purified F protein) (human respiratory syncytial virus, strain not stated)
Assay: SPR Biacore 3000, Fab over amine-coupled recombinant protein F

Fab fragment derived from commercially available Palivizumab (Synagis)
Kd: 3.78 nM
koff: 0.000757 s⁻¹
kon: 200000 M⁻¹ s⁻¹
t1/2: 15 min
